Source: patent publication US20200385482A1

Tests used:
[1] = biological target: human C-type lectin domain family 2 member (hCLEC2D) expressed on transfected 300.19 cells (human) (UniProt Q9UHP7); test: FACS, hCLEC2D 300.19 cells, assay 2, Ab 0.1 ug/ml
[2] = biological target: human C-type lectin domain family 2 member (hCLEC2D) expressed on transfected 300.19 cells (human) (UniProt Q9UHP7); test: FACS, hCLEC2D 300.19 cells, assay 1, Ab 0.1 ug/ml
[3] = biological target: human C-type lectin domain family 2 member (hCLEC2D) expressed on transfected 300.19 cells (human) (UniProt Q9UHP7); test: FACS, hCLEC2D 300.19 cells, assay 2, Ab 1 ug/ml
[4] = biological target: human C-type lectin domain family 2 member (hCLEC2D) expressed on transfected 300.19 cells (human) (UniProt Q9UHP7); test: FACS, hCLEC2D 300.19 cells, assay 1, Ab approx 10 ug/ml
[5] = biological target: human C-type lectin domain family 2 member (hCLEC2D) expressed on transfected 300.19 cells (human) (UniProt Q9UHP7); test: FACS, hCLEC2D 300.19 cells, assay 2, Ab approx 10 ug/ml
[6] = biological target: human C-type lectin domain family 2 member (hCLEC2D) expressed on transfected 300.19 cells (human) (UniProt Q9UHP7); test: FACS, hCLEC2D 300.19 cells, assay 1, Ab 1 ug/ml
[7] = biological target: human C-type lectin domain family 2 member (hCLEC2D) expressed on transfected 300.19 cells (human) (UniProt Q9UHP7); test: FACS, hCLEC2D 300.19 cells, assay 2, Ab 0.01 ug/ml
[8] = biological target: human C-type lectin domain family 2 member (hCLEC2D) expressed on transfected 300.19 cells (human) (UniProt Q9UHP7); test: FACS, hCLEC2D 300.19 cells, assay 1, Ab 0.01 ug/ml

human C-type lectin domain family 2 member (hCLEC2D) expressed on transfected 300.19 cells (human), sequence (Q9UHP7 whole entry, the tested form may be a part): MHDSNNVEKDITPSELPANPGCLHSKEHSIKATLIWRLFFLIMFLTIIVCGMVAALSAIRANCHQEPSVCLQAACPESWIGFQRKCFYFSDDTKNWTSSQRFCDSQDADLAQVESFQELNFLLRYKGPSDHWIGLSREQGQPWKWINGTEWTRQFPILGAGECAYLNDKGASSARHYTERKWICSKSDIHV

Cells PE-A Mean [1]: 175 MFI
Cells PE-A Mean [2]: 175 MFI
Cells PE-A Mean [3]: 351 MFI
Cells PE-A Mean [4]: 1540 MFI
Cells PE-A Mean [5]: 1540 MFI
Cells PE-A Mean [6]: 351 MFI
Cells PE-A Mean [7]: 146 MFI
Cells PE-A Mean [8]: 146 MFI
Substance: control hIgG (antibody)
